Laboratory results: patent US5376632A, “Cyclodextrin based erythropoietin formulation” (priority 1992, dated 1994)

How the values were obtained:
[1] = Irritation at the site of injection and clinical safety in healthy volunteers (Example 8); format: in vivo, human (healthy male volunteers); settings: s.c.
Method: Bioavailability of erythropoietin after subcutaneous administration of erythropoietin in a hydroxypropyl-β-cyclodextrin formulation in comparison with formulations using human serum albumin in healthy volunteers was assessed in the following study.
Six healthy male volunteers with ages ranging between 30 and 40 (median 32) years, body weights between 69 and 80 (median 75) kg were administered subcutaneously in the upper arm 1 ml of an EPO solution (4000 I.U./ml) according to a randomized cross-over design. A four-week interval occured between the two tests. The two formulations of EPO were
Irritation at the site of injection was scored before and 2, 4, and 24 hours after each administration. No oedema, erythema, itching or pain was reported in any of the volunteers at any time during the whole study. Both formulations are therefore equally well tolerated.

[2] = -80° C.; cited from earlier work

EPO: circulating glycoprotein hormone which induces an increase in red cell mass
blood pressure or heart rate [1]: Nor did subcutaneous administration of EPO influence blood pressure or heart rate
haematology and serum biochemistry [1]: No clinically important changes
decrease in activity in aqueous solution [2]: substantial decrease in activity
